From the nanobody polyreactivity screen of Harvey et al. (2022) come the findings set out here.

This data set can be described thus: yeast display, Sf9 membrane polyspecificity reagent, FACS + sequencing; frameworks hold sequencing errors. A digest of the protocol:
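Nanobodies from a synthetic yeast display library (Saccharomyces cerevisiae BJ5465), induced 36–48 hours with galactose, were stained 1 hour at 4 °C with 10% biotinylated, detergent-solubilized Sf9 membrane reagent, enriched on streptavidin microbeads, then FACS-sorted. Anti-HA (expression) and streptavidin (reagent binding) fluorescence set low and high (top ~1%) gates. Polyreactivity labels come from the gate of origin. Genes were colony-PCR amplified, MiSeq 2 × 250 sequenced and filtered by CDR length.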
For “QEQLQESGGGLVQAGGSLRLSCAASGNIYDADIMGWYRQAPGKERELVTSITDGGSTNYADSVKGRFTISRDNAKNTVYLQMNSLKPEDTAVYFCAAIAYPVIPTSFDYNSDYSYWGQGTQVTVSS”, the “polyreactivity (PSR sort gate)” value is “low polyreactivity”.
On to “QEQLQESGGGLVQAGGSLRLSCAASGSISGSSTMGWYRPAPGKERELVASIAVGANTNYADSAKGRFTISRDNAKNTVYLQMNSLKPEDTAVYYCAVDYYIYYFHYWGQGTQVTVSS”, for which the “polyreactivity (PSR sort gate)” value was “high polyreactivity”.
In the case of “QEQLQESGGGLVQAGGSLRLSCAASGSISPYIYMGWYRQAPGKERAFVAGIGYGGTTNYADSEKGRYTISRDNAKNTEYLQMNSLKPDDTALYYCNAAYFAGPADDKFDYWGQGTQVTVSS”, the “polyreactivity (PSR sort gate)” value is on record as “low polyreactivity”.
Next, “QEQLQESGGGLVQAGGSLRLSSAASGSISGSSTMGWYRQAQGKERELVASIAVGANTNYADSAKGRFTISRDNAKNTVYLQMNSLKPEDTAVYYCAVDYYIYYFHYWGQGTQVTVSS”: “high polyreactivity”; “QEQLQESGGGLVQAGGSLRQICAASGSNTPWSYMGRYRQAPGKEREFVASINAGTNTYYADSAKGRITISRDNAKITVYLQMNSLKPEDTAVYYCAARPDGDRLFSYWGQGTQVTVSS”: “low polyreactivity”; “QEQLQESGGGLVQEGGSLRLSCAASGNISPPADMGWYRQAPGKERELVASIGTGGTTNYADSVKGRFTISRDNAINTVYLQMNSLKPDDTAVYYCAAVRYEYNPYDYWGQGTQVTVSS”: “low polyreactivity”.
Next, “QEQLQESGGGQVQAGGSLLLSCAASGNIIRYYYMGWSRQAPGKERELVAAITYGTSTNYADSVKGRFTISRDNAKNTVYLQMNSLKPEDTAVYYCAVDVNYGDPLDNWGQGTQVTVSS”: “high polyreactivity”; “QEQLQESGGGQVQAGGSLLLSCAASGNIIRYYYMGWYRQAPGKERELVAAITYGTSTNYADSVKGRFTISRDNAKNTVYLQMNSLKPEDTAVYYCAVDVNYGDPLDNWGQGTQVTVSS”: “high polyreactivity”.
With “QEQLQESGSGLVQAGGSLRLSCAASGNIFQDWFMGWYRQAPGKERELVAAISPGANTNYADSVKGRFTISRDNAKNSVYLQMNSLKPEDTAVYYCAAESLFDDYYGYWGQGTQVTVSS” the entry was “low polyreactivity”; with “QEQLQESGSGLVQAGGSLRLSCAASGNIFQDWVMGWYRQAPGKERELVAAISPGAITYYADSVKGRFTISRDNAKYTVYLQTNSLKPEDTAVYYCAAYYIVEYLHGYWGQGTRVTVSS”, “low polyreactivity”.
As to “QEQLVESGGGLDQAGGSLRLICDASGFTFLGYAMGWYRQAPGKERELVAAITSGGRTNYADSVKGRFTISRDNAKNTVYLQMNSLKPEDTAVYYCAAYRWDYYYWGQGTQVTVSS”, the “polyreactivity (PSR sort gate)” value is given as “high polyreactivity”.
With “QEQLVESGGGLVQAGGSLRLICADSGRTLVYYGMGWYRQAPGKERELVAAISGSGGRTYYADSVKGRFTISRDNAKNTVYLQMNSLKPEDTAVYYCAALCRSYPAKYASYDYCGQGTQVTVSS” the entry was “high polyreactivity”; with “QEQLVESGGGLVQAGGSLRLICPASGSIFNIYAMPWSRQAPGKERELVATITGIADSTYYADSVKGRFTISRDNAMNTVYLQMNSLKPEDTAVYYCAAEKYVAEYDYWGHGTQVTVSS”, “low polyreactivity”.
For the sequence “QEQLVESGGGLVQAGGSLRLSCAASGGTFGSNTRGWYRQAPGKERELVAAITSGVSTNYADSVKGRFTISRDNAKITVYLQMNRLKPEDTAVYYCAKELWSEEYETIITYYGFDYLGQGTQVTVSS”, the “polyreactivity (PSR sort gate)” value is “low polyreactivity”.
As for “QEQLVESGGGLVQAGGSLRLSCAASGSILRYYAMRWYRQPPGKEREFVAAISWSGTSTYYADSVKGRFTISRDIAKNTVYLQLNSLKPEDTSVYYCAARTYYVPYYYCGQGTQVTVSS”, the “polyreactivity (PSR sort gate)” value was “high polyreactivity”.
For the sequence “QEQLVESGGGLVQAGGSLRLSCAASGSTFYANAMGWYRQAPGQERELVAAISWDGGNTYYADSVKGRFTISRDNAKNNVYLQMNSLKPEDTAVYYCARDYYGTVYYYGYDYWGQGTQVTVSS”, the “polyreactivity (PSR sort gate)” value is “low polyreactivity”.
Turning to “QEQLVESGGGLVQAGGSLRLSCDASGRTLSRYTMGWYRQPPGQETELVAAISTSGSTYYADSVKGRFTISRDNAKNPVYLQMNSVKPDDTGVYYCNAVGLYLHYATGYDYWGQGRQVTVSS”, the “polyreactivity (PSR sort gate)” value is reported as “high polyreactivity”.
For the sequence “QFHLVESGGGLVQAGGSLRLSCAASGSIFYPYDMGWYRQAPGKERELVATINWSSGRTNYADSVKGRFTISRDYAKNTVYLQMNSLKPEDSAVYYCNARFYYTLYYDYWGQGTQVTVSS”, the “polyreactivity (PSR sort gate)” value is “high polyreactivity”.
With “QFHLVESGGGLVQAGGSLRLSCAATGSIFYTNAMGWYRQPAGTDRELVASIRSRDRTKYADSVKWRFSISRVNAKNTVYLQMNSLKPEDTAVYYCAADRYWYGVHASIYYYWGHGTQVTVSS” the entry was “high polyreactivity”.
As to “QFKLVESGGGLVQAGGSLRLSCAASGSTFKWNAMGWYRQAPGKERELVAAITSGGSTTYADSVKGRFTISRDNAKNTVYLQMNSLKPEDTAVYYCAAAYRRHYYGVYRFDYWGQGTQVTVSS”, the “polyreactivity (PSR sort gate)” value is “high polyreactivity”.
With “QFKLVESGGGLVQAGGSLRLSCAASGVIIQGNAMGWYRQAPGNEMELVAAISSSVSTYYADSVKGRFTISRDNAKNTVYLQMTSLKPEDTAVYYCNAGFPLSLWLGDYWGHGTQVTVSS” the entry was “low polyreactivity”.
With “QFPLVESAGGLGQAGGTLRLTWAASGLSFGANTLGWYRHAPGKERELVAALTISGGITHYADSVKGRFTISRDNANNTVYVQIKSLQPEDTAVYYCAAGAYWRLYPYRQRNGGRMYYWGQGTQVTVSS” the entry was “low polyreactivity”; with “QFQHVDSGGGLVQAGGSLRLSCADSGYTFPLYDMGRYRKAPGKVSELVADINIGGASTYYADSVKGRLTISRDNSKNSVYLQMNSLKPEDTAVYYCAKEYYDGYFPTFDYDYWGQGTQVTVSS”, “low polyreactivity”.
Take “QFQIVESGGGLVQAGGSLRLSCAASGGTFVSYAMGWYRQAPGKERELVAAITYSGGSTYYADSVKGRFTISRDNAKNTVYLQMNSLKPEDTAVYYCAAAKFSYFSYCPRGKVKYEYWGQGTQVTVSS”: the “polyreactivity (PSR sort gate)” value was “low polyreactivity”.
In the case of “QFQIVESGGGLVQAGGSLRLSCAASGSTFRSYAMGWYRQAPGKERELFARISYRTGSTYYADSVKRRFTISRDNAKNTVYLQMNSLKPEDTVVYYCAAGYIIQRSYFLYDSWGHGTQVTVSS”, the “polyreactivity (PSR sort gate)” value was “high polyreactivity”.
With “QFQLEESGGGLVQAGGSLRLSCAASARIFLNYAMGWFRQAPGKEMELVAAIRSASSTYYADSVKGRFTISRDNAKNTVYLQMNSLKAEDTAVYYCARLRYFLLNGSLRYGSSDRDYWGQGTQVTVSS” the entry was “high polyreactivity”; with “QFQLLESGGGLVQAGGSLRLSCAASGRTFSYNAMGWYRKAPGIERELVAAITGGTASTYYADSVKGRFTISRDNAKNPVYFQMNSLKPEETAVYYCNRASVFHYPWYYYWGQGTQVTVSS”, “high polyreactivity”.
Next, “QFQLLESGGGLVQAGGSLRLSCAASGSTFSLTTMGWYRPAPGKERELVAAINSGGSTYYADSVKGRFTISRDNAKNTVYLKMNSLKPEDTAVYYCAARTKYFGRFDYWGQGTQVTVSS”: “low polyreactivity”; “QFQLLESGGGLVQAGGSLRRSCAASGFTFDYYAMGWSRQAPGKERELVAVNNWSGGDTYYADSVKGRFTISRDNAKNTVYLQMNSLKPEDTAVYYCARVERMRYVGKYYPIRDYWGQGNQVTVSS”: “high polyreactivity”; “QFQLVDSGGGLVQAGGSLRLRSAASGRTFYPYVMAWYRQAPGKEREIVAAISYTGCSTYYADSVKGRFTISRDNAKNTVYLQMNSLKPEDTAVYYCNRAKYYSGGYRYHVDYWGQGTQVTVSS”: “high polyreactivity”.
